Laboratory results published in US10660939 (PALATIN TECHNOLOGIES, dated 2020).
Positions of bridges follow the written chain, without caps; N, C: chain ends. Non-standard residues stand in square brackets, D forms with d. 2Nal = N[C@@H](Cc1ccc2ccccc2c1)C(=O)O; Aad = N[C@@H](CCCC(=O)O)C(=O)O; Orn = NCCC[C@H](N)C(=O)O; Dab = NCC[C@H](N)C(=O)O

B1: Peptide No. 165 (peptide)
peptide: Ac-RE[Dab][dF]RW[Orn]-NH2
modifications: lactam 2-7
notes: also called Ac-Arg-cyclo(Glu-Dab-D-Phe-Arg-Trp-Orn)-NH2
B2: Peptide No. 28 (peptide)
peptide: RDRFRWK
modifications: N-terminal Ac; D-Phe 4; cyclo(Asp 2-Lys 7); C-terminal NH2
notes: also called Ac-Arg-cyclo(Asp-Arg-D-Phe-Arg-Trp-Lys)-NH2
B3: Peptide No. 73 (peptide)
peptide: RDRFRWK
modifications: N-terminal Ac; D-Phe 4; cyclo(Asp 2-Lys 7); C-terminal OH
notes: also called Ac-Arg-cyclo(Asp-Arg-D-Phe-Arg-Trp-Lys)-OH
B4: Peptide No. 161 (peptide)
peptide: Ac-REN[dF]RW[Orn]-NH2
modifications: lactam 2-7
notes: also called Ac-Arg-cyclo(Glu-Asn-D-Phe-Arg-Trp-Orn)-NH2
B5: Peptide No. 162 (peptide)
peptide: Ac-RKN[dF]R[2Nal]D-NH2
modifications: lactam 2-7
SMILES: CC(=O)N[C@@H](CCCNC(=N)N)C(=O)N[C@H]1CCCCNC(=O)C[C@@H](C(N)=O)NC(=O)[C@H](Cc2ccc3ccccc3c2)NC(=O)[C@H](CCCNC(=N)N)NC(=O)[C@@H](Cc2ccccc2)NC(=O)[C@H](CC(N)=O)NC1=O
notes: also called Ac-Arg-cyclo(Lys-Asn-D-Phe-Arg-Nal2-Asp)-NH2
B6: Peptide No. 159 (peptide)
peptide: RXQFRWX
modifications: N-terminal Ac; Dab 2 (X); D-Phe 4; hGlu 7 (X); cyclo(Dab 2-hGlu 7); C-terminal NH2
notes: also called Ac-Arg-cyclo(Dab-Gln-D-Phe-Arg-Trp-hGlu)-NH2
B7: Peptide No. 155 (peptide)
peptide: Ac-RKN[dF]RWD-NH2
modifications: lactam 2-7
notes: also called Ac-Arg-cyclo(Lys-Asn-D-Phe-Arg-Trp-Asp)-NH2
B8: Peptide No. 160 (peptide)
peptide: Ac-R[Aad]N[dF]RW[Dab]-NH2
modifications: lactam 2-7
notes: also called Ac-Arg-cyclo(hGlu-Asn-D-Phe-Arg-Trp-Dab)-NH2

These binders were tested against T1, human melanocortin receptor-4 (human, UniProt P32245 1-332) (assay: competition with [I125]-NDP-α-MSH, hMC4r HEK-293 membranes).
T1 construct: whole, on cells; cAMP assays on whole cells; also called hMC4r; MC4r
T1 sequence (P32245 whole entry): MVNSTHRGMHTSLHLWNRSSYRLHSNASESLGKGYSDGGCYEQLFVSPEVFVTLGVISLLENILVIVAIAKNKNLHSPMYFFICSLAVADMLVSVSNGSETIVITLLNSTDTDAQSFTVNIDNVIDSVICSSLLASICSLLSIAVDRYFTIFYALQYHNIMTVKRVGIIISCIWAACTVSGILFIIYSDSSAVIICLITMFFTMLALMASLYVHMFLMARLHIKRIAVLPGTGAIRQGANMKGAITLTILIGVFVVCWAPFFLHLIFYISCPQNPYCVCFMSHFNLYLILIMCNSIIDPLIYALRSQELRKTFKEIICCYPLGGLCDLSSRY
With B1 the Ki was 0.65 nM.

The binders below were run against T1, human melanocortin receptor-4 (assay: cell-based or functional assay).
For Ac-R[Dab]H[dF]RW[Aad]-NH2 (lactam 2-7) [Peptide No. 128], the “intrinsic activity (cAMP, NDP-α-MSH is 100%)” value was 95%. Ac-R[Aad]H[dF]RW[Dab]-NH2 (lactam 2-7) [Peptide No. 126] was tested, and the “intrinsic activity (cAMP, NDP-α-MSH is 100%)” value was 101%. In the case of Ac-RDV[dF]RWK-NH2 (lactam 2-7) [Peptide No. 16], the “intrinsic activity (cAMP, NDP-α-MSH is 100%)” value is reported as 42%. For Ac-RDH[dF]RWK-NH2 (lactam 2-7) [Peptide No. 1], the “intrinsic activity (cAMP, NDP-α-MSH is 100%)” value was 91%. With Ac-RDQ[dF]RWK-NH2 (lactam 2-7) [Peptide No. 32] the “intrinsic activity (cAMP, NDP-α-MSH is 100%)” value was 98%.

Each binder was assayed against T1, human melanocortin receptor-4 (assay: competition with Eu-NDP-α-MSH, hMC4r HEK-293 membranes).
Protocol: After incubation for 90 minutes at 37° C., the reaction was stopped by filtration over AcroWell 96-well filter plates (Pall Life Sciences). The filter plates were washed 4 times with 200 μL of ice-cold phosphate-buffered saline. DELFIA Enhancement solution (PerkinElmer Life Sciences) was added to each well. The plates were incubated on a shaker for 15 minutes and read at 340 nm excitation and 615 nm emission wavelengths. Each assay was conducted in duplicate and mean values were utilized. Ki values were determined by curve-fitting with Graph-Pad Prism® software using a one-site fixed-slope competition binding model.
For B2, the Ki was 4 nM. B3 gave a Ki of 60 nM.

What follows are binders tested against human melanocortin receptor-1 (human, UniProt Q01726 1-317) (assay: cell-based or functional assay).
Chain of human melanocortin receptor-1 (Q01726 whole entry): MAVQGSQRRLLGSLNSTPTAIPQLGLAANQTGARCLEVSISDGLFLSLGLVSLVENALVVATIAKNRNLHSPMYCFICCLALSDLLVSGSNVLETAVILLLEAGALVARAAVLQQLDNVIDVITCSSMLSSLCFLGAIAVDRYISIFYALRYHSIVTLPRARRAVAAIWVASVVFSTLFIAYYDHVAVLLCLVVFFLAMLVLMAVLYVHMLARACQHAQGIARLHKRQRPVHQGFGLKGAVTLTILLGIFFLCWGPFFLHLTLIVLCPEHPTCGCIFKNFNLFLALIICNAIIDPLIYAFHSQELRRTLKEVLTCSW
B4 was tested, and the “hMC1r EC50” value was 13 nM and the “hMC1r Emax” value was 85%. In the case of B5, the “hMC1r EC50” value is reported as 22 nM and the “hMC1r Emax” value is reported as 89%. In the case of Ac-[dR][Orn]Q[dF]RWE-NH2 (lactam 2-7) [Peptide No. 152], the “hMC1r Emax” value is reported as 85%. Ac-[dR][Orn]N[dF]RWE-NH2 (lactam 2-7) [Peptide No. 156] was tested, and the “hMC1r EC50” value was 80 nM and the “hMC1r Emax” value was 81%. For Ac-R[Orn]N[dF]RWE-NH2 (lactam 2-7) [Peptide No. 154], the “hMC1r EC50” value was 25 nM. In the case of Ac-R[Orn]Q[dF]RWE-NH2 (lactam 2-7) [Peptide No. 150], the “hMC1r Emax” value is reported as 89%. B6 was tested, and the “hMC1r EC50” value was 26 nM and the “hMC1r Emax” value was 98%. B7 was tested, and the “hMC1r EC50” value was 14 nM and the “hMC1r Emax” value was 91%. With Ac-[dR]DQ[dF]RWK-NH2 (lactam 2-7) [Peptide No. 71] the “hMC1r Emax” value was 88%.

Target: T1, human melanocortin receptor-4
Assay: cell-based or functional assay
Remark: another data set of the same source
B4 was tested, and the “hMC4r EC50” value was 0.413 nM and the “hMC4r Emax” value was 91%. For B5, the “hMC4r EC50” value was 0.85 nM and the “hMC4r Emax” value was 82%. Ac-[dR][Orn]Q[dF]RWE-NH2 (lactam 2-7) [Peptide No. 152] was tested, and the “hMC4r Emax” value was 89%. B8 was tested, and the “hMC4r EC50” value was 0.245 nM and the “hMC4r Emax” value was 98%. In the case of B6, the “hMC4r EC50” value is reported as 0.825 nM and the “hMC4r Emax” value is reported as 99%. With B7 the “hMC4r EC50” value was 0.189 nM and the “hMC4r Emax” value was 97%. With Ac-[dR]DQ[dF]RWK-NH2 (lactam 2-7) [Peptide No. 71] the “hMC4r Emax” value was 89%.

Each binder was assayed against T1, human melanocortin receptor-4 (assay: ratio of Ki at hMC1r to Ki at hMC4r).
In the case of B4, the “binding selectivity, MC4r against MC1r” value is reported as 20 fold. For B5, the “binding selectivity, MC4r against MC1r” value was 20 fold. For B6, the “binding selectivity, MC4r against MC1r” value was 20 fold. For B7, the “binding selectivity, MC4r against MC1r” value was 20 fold.
